Data on 1 molecule can be found in paper PMC7315409 (Science translational medicine, 2020).

This assay concerns the target T1, recombinant high mobility group box 1 (HMGB1) (human, UniProt P09429 1-215).
T1 sequence (looked up): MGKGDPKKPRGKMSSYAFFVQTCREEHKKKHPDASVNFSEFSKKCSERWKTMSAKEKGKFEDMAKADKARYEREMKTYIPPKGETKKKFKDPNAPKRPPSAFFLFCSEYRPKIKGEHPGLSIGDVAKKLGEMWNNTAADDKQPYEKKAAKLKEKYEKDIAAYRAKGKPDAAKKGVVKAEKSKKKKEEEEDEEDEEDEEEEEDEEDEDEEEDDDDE
Put plainly: radioligand binding.

B1: purified syndecan-1 (natural protein)
chain: QIVAVNVPPEDQDGSGDDSDNFSGSGTGALPDTLSRQTPSTWKDVWLLTATPTAPEPTSSNTETAFTSVLPAGEKPEEGEPVLHVEAEPGFTARDKEKEVTTRPRETVQLPITQRASTVRVTTAQAAVTSHPHGGMQPGLHETSAPTAPGQPDHQPPRVEGGGTSVIKEVVEDGTANQLPAGEGSGEQDFTFETSGENTAVAAVEPGLRNQPPVDEGATGASQSLLDRKEVLG
modifications: heparan sulfate (HS) polysaccharide side chains on the core protein
Regarding B1, the half-maximal inhibitory concentration (IC50) was 500 to 550 nM.

For orientation: IC50 means the concentration needed to halve the response being measured.
